A word on the EC50: it is the concentration that produces a half-maximal response. By Kd is commonly meant the constant that tells how readily two partners part at equilibrium. A high value points to weaker binding.

This note sets out measurements from patent US20200255529A1 (PIONYR IMMUNOTHERAPEUTICS, published 2020).

Test [1] deals with T1, Fc-tagged recombinant mouse TREM1 (R&D systems #1187-TR) (mouse, UniProt Q9JKE2 21-202).
T1 construct: Bought reagent; not shown: Fc tag
T1 sequence: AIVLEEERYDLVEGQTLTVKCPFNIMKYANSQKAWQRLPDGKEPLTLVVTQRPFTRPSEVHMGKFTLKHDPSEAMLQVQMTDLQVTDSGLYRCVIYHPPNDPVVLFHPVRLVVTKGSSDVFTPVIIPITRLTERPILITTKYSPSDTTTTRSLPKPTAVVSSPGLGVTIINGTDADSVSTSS
Description: MSD ligand binding PK assay, plate coated with Fc-tagged recombinant mouse TREM1. The procedure: A 96-well high-binding MSD plate was coated with Fc-tagged recombinant mouse TREM1 (R&D systems #1187-TR). After blocking, samples were added to the plate which bound the TREM1 protein. […] ECL signal was produced by the secondary antibody after the plate received an electric signal from an MSD plate reader. The ECL signal was detected and quantified by the plate reader.

The target of test [2] is T2, cynomolgus TREM1 on cells (cynomolgus, UniProt A0A2K5VHG8 21-233).
T2 construct: whole, on cells; Used for HEK293 cells over-expressing cynomolgus TREM1 and for primary cynomolgus monocytes; also called cynoTREM1; Cyno TREM1 cells
T2 sequence: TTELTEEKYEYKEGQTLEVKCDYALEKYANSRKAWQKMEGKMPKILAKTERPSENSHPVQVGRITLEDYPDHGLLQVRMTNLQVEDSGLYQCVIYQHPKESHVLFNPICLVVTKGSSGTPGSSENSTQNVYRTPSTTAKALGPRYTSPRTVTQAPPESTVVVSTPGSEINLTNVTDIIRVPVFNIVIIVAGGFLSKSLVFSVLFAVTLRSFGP
Kind of test: flow cytometry on HEK293 cells over-expressing cynomolgus TREM1; cells overexpressing cynomolgus TREM1; EC50 about 12-fold weaker than parent (4.61 nM); background binding Y. (In general: A flow cytometer gives signals particle by particle.)

The target in test [3] is hCD16 on NFAT-luciferase reporter Jurkat cells (Promega) (human, UniProt P08637 17-254). Description: cell-based or functional assay.
Chain of hCD16 on NFAT-luciferase reporter Jurkat cells (Promega) (P08637 17-254 F176V): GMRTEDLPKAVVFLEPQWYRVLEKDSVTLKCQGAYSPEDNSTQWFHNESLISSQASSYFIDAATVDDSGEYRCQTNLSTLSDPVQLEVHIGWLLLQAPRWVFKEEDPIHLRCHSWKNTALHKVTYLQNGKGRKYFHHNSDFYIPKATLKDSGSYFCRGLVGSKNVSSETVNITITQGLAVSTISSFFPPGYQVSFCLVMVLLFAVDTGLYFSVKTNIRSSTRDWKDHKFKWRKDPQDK
For test [4], the target named is T3, Chimeric cynomolgus TREM1-mIgG Fc (cynomolgus, UniProt A0A2K5VHG8 21-204).
T3 construct: not shown: mouse IgG Fc
T3 sequence: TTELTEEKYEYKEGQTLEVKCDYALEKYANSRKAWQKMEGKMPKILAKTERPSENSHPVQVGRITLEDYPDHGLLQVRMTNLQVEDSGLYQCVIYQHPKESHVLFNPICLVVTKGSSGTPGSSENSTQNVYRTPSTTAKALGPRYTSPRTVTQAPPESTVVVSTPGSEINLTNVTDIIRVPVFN
Kind of test: SPR (Biacore T200), avid format: cynomolgus TREM1-mIgG Fc captured, antibody as analyte. The procedure:
All data were collected at 25° C. 10 mM HEPES pH 7.4, 150 mM NaCl, 3 mM EDTA, 0.05% (v/V) surfactant P20 was used as mobile buffer and for all dilution of mAbs. Anti-mouse Fc was immobilized on a CM4 biosensor chip (GE Healthcare) using amine coupling chemistry. Chimeric cynomolgus TREM1-mIgG Fc was captured on one flow cell and another flow cell (used as reference surface) was left blank. […] After each cycle, the surface was regenerated by injecting a glycine HCl buffer (10 mM, pH 2.0). BIAevaluation software was used to perform the kinetic evaluation. Kinetic evaluation was through generation of sensorgrams which were fitted with a 1:1 Langmuir binding model.

Test [5] concerns the target T2, cynomolgus TREM1 on cells. Kind of test: flow cytometry on HEK293 cells over-expressing cynomolgus TREM1; cells overexpressing cynomolgus TREM1; EC50 about 6-fold weaker than parent (4.61 nM).

B1: afucosylated PI-4928 anti-TREM1 antibody (antibody, mouse IgG2a, kappa, V domains shown)
VH: QVQLKESGPGLVQPSQTLSLTCTVSGFSITSSNVYWFRQPPGKGLEWMGNIWGDGSTDYNSSLKSRLTLSRDTSKNQVFLKINSLQSEDTATYFCTRSWEYYFDHWGQGVVVTVSS
VL: DIVLTQSPALAVSPGQRATLSCRASQSVTLSNVNLMNWYQQKPGQQPKLLIYHASNLASGIPTRFSGSGSGTDFTLTIDPVQADDIAAYYCQQSGESPRTFGGGTKVELKR
modifications: afucosylated
notes: Anti-mouse TREM1 surrogate, mIgG2a
B1: the binding result in test [1] is reported as “binds”.

B2: PI-4026-5-M100E (fucosylated) (antibody, human IgG1, kappa)
heavy: not shown
light: DIQLTQSPSSLSASVGDRVTITCSASSSVSYMHWYQQKPGKAPKLLLYTTSNLASGVPSRFSGSGSGTDYTLTISSLQPEDFATYYCHQWSGYPTFGQGTKLEIKRTVAAPSVFIFPPSDEQLKSGTASVVCLLNNFYPREAKVQWKVDNALQSGNSQESVTEQDSKDSTYSLSSTLTLSKADYEKHKVYACEVTHQGLSSPVTKSFNRGEC
B2: the EC50 in test [2] is 58 nM. In test [3], the “hCD16 ADCC assay EC50” value worked out at 3.18 nM. Moreover, the dissociation constant Kd in test [4] was 6.19 nM.

B3: PI-4026-5-M100I (fucosylated) (antibody, human IgG1, kappa)
heavy: not shown
light: DIQLTQSPSSLSASVGDRVTITCSASSSVSYMHWYQQKPGKAPKLLLYTTSNLASGVPSRFSGSGSGTDYTLTISSLQPEDFATYYCHQWSGYPTFGQGTKLEIKRTVAAPSVFIFPPSDEQLKSGTASVVCLLNNFYPREAKVQWKVDNALQSGNSQESVTEQDSKDSTYSLSSTLTLSKADYEKHKVYACEVTHQGLSSPVTKSFNRGEC
B3: the EC50 in test [5] came to 28.6 nM. For the same molecule, in test [3], the “hCD16 ADCC assay EC50” value was determined as 6.92 nM. For the same molecule, the Kd in test [4] came to 11.8 nM.
